Assay results published in the supplement of paper PMC9170038.

Test system: MS2 coat protein
Assay: apparent KD of MS2 coat protein; designed switch direction (-1 OFF switch, 1 ON switch): -1; higher = weaker reporter binding
Procedure, shortened: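 Designed RNA switches were transcribed on Illumina chips by stalled E. coli RNA polymerase and titrated with SNAP-549-labelled MS2 coat protein from 0.7 or 1.5 nM, doubling to 3 µM. Step length ran from 0.8–1.5 h at the lowest concentration to 10–20 min at the highest. The apparent KD is the median over clusters for each design, from curve-fitted normalised cluster fluorescence.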

[1] = Eterna round: R95, input ligand: microRNA oligo, concentration not stated
[2] = Eterna round: R95, input ligand: FMN 200 uM
[3] = Eterna round: R95, input ligand: none
[4] = input ligand: microRNA oligo, concentration not stated

Sequence: AUUUACAAGCUAAGAUCCUACAUGAGGAUCACCCAUGUGGUCCGGUGACGUGAGUCACCGGACUUAGCUCGUCUUGC [salish99_S_TOV1_R5_084] (Eterna round: R97, puzzle: Sensor, turn-off variant 1)
- apparent KD of MS2 coat protein (input ligand: FMN 200 uM): 37.2 nM
- apparent KD of MS2 coat protein (input ligand: none): 38.1 nM

Sequence: ACCUAUGAGGAGGAUAUACGGUGCGAAAGGAUGGUAGAAGGCUUCACAUGAGGAUCACCCAUGUCUAUAAGCGA [EX6 #87] (Eterna round: R97, puzzle: Exclusion 6)
- apparent KD of MS2 coat protein (input ligand: FMN 200 uM): 27.8 nM
- apparent KD of MS2 coat protein (input ligand: none): 18.3 nM

Sequence: GGCAUGUAAGGAUAUGCCACGGAGGCCUUUGGCCUCCGAAAGCAGAAGGUACAUGAGGAUCACCCAUGUGAUAA [jl-ex4-4.59 ViennaUCT mod] (Eterna round: R97, puzzle: Exclusion 4)
- apparent KD of MS2 coat protein (input ligand: FMN 200 uM): 467 nM
- apparent KD of MS2 coat protein (input ligand: none): 390 nM

Sequence: CAGUACUGAGGAUAUACAUGAGGAUCACCCAUGUGUUCCAGCUUGGAAACUAGCAAAAGUAGAAGGCAGUACUG [salish99_ex3_r3_097x] (puzzle: Exclusion 3)
- apparent KD of MS2 coat protein [1]: 16.6 nM

Sequence: UGCGGGCUUUUGAGACCUCACAUGAGGAUCACCCAUGUGCUUGUCUUGUGGGUCGGUCGGUCGUUGGCUGGCUGGCG [Sensor-V1 #95] (Eterna round: R97, puzzle: Sensor, turn-off variant 1)
- apparent KD of MS2 coat protein (input ligand: FMN 200 uM): 20 nM
- apparent KD of MS2 coat protein (input ligand: none): 19.3 nM

Sequence: UAUUAGCUAGGAUAUACAUGAGGAUCACCCAUGUCACGGGUCCACUCGUCCUAUGCGUGUAGAAGGAGCGACCC [JL Ceriza mod 2] (puzzle: Exclusion 3)
- apparent KD of MS2 coat protein [1]: 20.6 nM

Sequence: UAAUGUAUAUAGGAUAUCUAGCUGGAUACAGCUAGAGAAGGAUGUACAUGAGGAUCACCCAUGUAAAUCAGUGA [Ex6/14-B3] (Eterna round: R97, puzzle: Exclusion 6)
- apparent KD of MS2 coat protein (input ligand: FMN 200 uM): 206 nM
- apparent KD of MS2 coat protein (input ligand: none): 39.3 nM

Sequence: GGUCGGCGAGGAUAUACAUGAGGAUCACCCAUGUGAUAUAGUGCACGCGUACGUGUACGUAGAAGGCGCUGACG [JL-ex3-3.26 salish99 mod] (puzzle: Exclusion 3)
- apparent KD of MS2 coat protein [2]: 39.6 nM
- apparent KD of MS2 coat protein [1]: 11.2 nM
- apparent KD of MS2 coat protein [3]: 15.1 nM

Sequence: GAAAAGGUAGGAUAUACGAAAAAAUAGGGUAGAAAAAAAACACAUGAGGAUCACCCAUGUAGAAGGACCAAAAG [salish99_ex2_r3_081] (puzzle: Exclusion 2)
- apparent KD of MS2 coat protein [2]: 47.6 nM
- apparent KD of MS2 coat protein [1]: 33.7 nM
- apparent KD of MS2 coat protein [3]: 27.5 nM

Sequence: AAAACACAUGAGGAUCACCCAUGUGAGGAUAUGUUAAUUUCGGCCAAAGCCGAAAUUAACAGAAGGCACAUAAA [JR_Exclusion1_Sub019] (puzzle: Exclusion 1)
- apparent KD of MS2 coat protein [1]: 46 nM

Sequence: AGCUGUGGCCGAGGAUAUACACAUGAGGAUCACCCAUGUAGGCGCGGAUACGCGCUAAAAUAAAUGUAGAAGGCGGUCUCAGCA [Eli eng2 - 055] (Eterna round: R96, puzzle: Exclusion NG 2)
- apparent KD of MS2 coat protein (input ligand: FMN 200 uM): 7.06 nM
- apparent KD of MS2 coat protein [4]: 5 nM
- apparent KD of MS2 coat protein (input ligand: none): 11.8 nM

Sequence: UUGCUUUCUUAGUACUCUAUAAGUUUUUUGUUCGUUUUAACAUGAGGAUCACCCAUGUCUAGUGGAUCUGAUCGGGU [JL ViennaUCT Isreen mod 7] (puzzle: Sensor v3, turn-off variant 2)
- apparent KD of MS2 coat protein [2]: 150 nM
- apparent KD of MS2 coat protein [1]: 303 nM
- apparent KD of MS2 coat protein [3]: 163 nM

Sequence: AAUUAUUAUUGAGGAUAUCGUAUUGAAACAAUACGAGAAGGCGGUAUAAACAUGAGGAUCACCCAUGUGAGCCUGAUGCUUAUG [Ex NG1 #99] (Eterna round: R96, puzzle: Exclusion NG 1)
- apparent KD of MS2 coat protein [4]: 27.5 nM

Sequence: GACUAGGGAGGAUAUAUUUACAGUGUACCUCGGAUGAUCGCACUUGAGGAUCACCCAAGUAGAAGGCUCGAGGG [EX2 #28] (Eterna round: R97, puzzle: Exclusion 2)
- apparent KD of MS2 coat protein (input ligand: FMN 200 uM): 30.4 nM
- apparent KD of MS2 coat protein (input ligand: none): 33.2 nM

Sequence: GGAUCGUAUGUGAGGAUAUACCACUGGAUACAGUGGUAGAAGGCACAUGAGGAUCACCCAUGUCCUAUCGAUCC [Fiskers BMX 4 - 54] (puzzle: Brourd's mod of Exclusion 4)
- apparent KD of MS2 coat protein [1]: 132 nM

Sequence: GUCAUCAAACAUGGGUGUAACAUGAGGAUCACCCAUGUUAUCAAGUUUUUUGCUCGUCUUAUAAUAAGUUUGAUGAC [Antenna 13 - Jieux - Sensor, turn-off variant 1] (Eterna round: R97, puzzle: Sensor, turn-off variant 1)
- apparent KD of MS2 coat protein (input ligand: FMN 200 uM): 87.5 nM
- apparent KD of MS2 coat protein (input ligand: none): 97.6 nM

Sequence: ACAUGUCAUUGAGGAUAUUGCAAACAUGAGGAUCACCCAUGUAUACGGAUGCUCUUACGUGAGUUCGAGAAGGCGAUGUACAUU [Ex NG2 #91] (Eterna round: R96, puzzle: Exclusion NG 2)
- apparent KD of MS2 coat protein (input ligand: FMN 200 uM): 99.7 nM
- apparent KD of MS2 coat protein [4]: 39.7 nM
- apparent KD of MS2 coat protein (input ligand: none): 46.2 nM

Sequence: AGUAGUUGUUUCCGUUCUUACAUGAGGAUCACCCAUGUUUCUUGUCGUGCUCGCGAUGCUCGUCAGACUACCAGAUG [salish99_TOv1_r3_059] (puzzle: Sensor v3, turn-off variant 1)
- apparent KD of MS2 coat protein [2]: 53.4 nM
- apparent KD of MS2 coat protein [1]: 65.7 nM
- apparent KD of MS2 coat protein [3]: 72.8 nM

Sequence: GUGUACAGAGGAUAUAUAUGAGCAUGGAAACAUGCAAGAUCACAUGAGGAUCACCCAUGUAGAAGGCUGUACAC [Ex2: 736] (Eterna round: R96, puzzle: Exclusion 2)
- apparent KD of MS2 coat protein (input ligand: FMN 200 uM): 861 nM
- apparent KD of MS2 coat protein [4]: 99.3 nM
- apparent KD of MS2 coat protein (input ligand: none): 112 nM

Sequence: UGUACGCGAGGAUAUACAUGAGGAUCACCCAUGUCAUAUGAAAUGUAAUGAGUAGCGGGUAGAAGGCGCUUUUG [Eternabot (L2) Solution 26] (Eterna round: R97, puzzle: Exclusion 3)
- apparent KD of MS2 coat protein (input ligand: FMN 200 uM): 21.8 nM
- apparent KD of MS2 coat protein (input ligand: none): 31.3 nM

Sequence: AAGACACAUGAGGAUCACCCAUGUGAGGAUAUUCGAUGCUAAGCGUAAGCUUAGUAUCGGAGAAGGCACAAAGG [Salishxclusion 6 - Jieux - Exclusion 1] (Eterna round: R97, puzzle: Exclusion 1)
- apparent KD of MS2 coat protein (input ligand: FMN 200 uM): 128 nM
- apparent KD of MS2 coat protein (input ligand: none): 48.2 nM

Sequence: UUUUAACAUGAGGAUCACCCAUGUGAGGAUAUCGAAAUUUAUAUUAAUAUUUAUUAUUCGAGAAGGCACAUUUU [JMF 61] (puzzle: Exclusion 1)
- apparent KD of MS2 coat protein [1]: 119 nM

Sequence: CAUUAUUAUCGAGGAUAUCCUAUUGAAAUUCUAGGAGAAGGCGGACUCAACAUGAGGAUCACCCAUGUGGGACGGAUGCUAGGG [Ex NG1 #29] (Eterna round: R96, puzzle: Exclusion NG 1)
- apparent KD of MS2 coat protein (input ligand: FMN 200 uM): 15.9 nM
- apparent KD of MS2 coat protein [4]: 19.6 nM
- apparent KD of MS2 coat protein (input ligand: none): 17.8 nM

Sequence: ACAAGCUUGUAAUGAUAGAACAUGAGGAUCACCCAUGUAAAUGGAAGAACCAAUUGGAUAAGAUAAACUCGUCUUAU [JR_STOV1_Sub003] (Eterna round: R97, puzzle: Sensor, turn-off variant 1)
- apparent KD of MS2 coat protein (input ligand: FMN 200 uM): 114 nM
- apparent KD of MS2 coat protein (input ligand: none): 127 nM

Sequence: UCUCGAAGGCAAGGAUAUCCUACAUUGUUCUGGCCCGGGCAUGCUACAUGAGGAUCACCCAUGUGGGAGAAGGUGCGCCACUGC [Design 28] (Eterna round: R96, puzzle: Exclusion NG 2)
- apparent KD of MS2 coat protein (input ligand: FMN 200 uM): 69.6 nM
- apparent KD of MS2 coat protein [4]: 47.1 nM
- apparent KD of MS2 coat protein (input ligand: none): 72 nM

Sequence: UGAGCAUGAGGAUAUACAAGGCGACCGUGAGGUCGAGGUUUACAUGAGGAUCACCCAUGUAGAAGGCAUGUUCU [jl-ex2-4.07] (Eterna round: R97, puzzle: Exclusion 2)
- apparent KD of MS2 coat protein (input ligand: FMN 200 uM): 40.2 nM
- apparent KD of MS2 coat protein (input ligand: none): 20 nM

Sequence: AGAUAGUGGUGAGGAUAUGAGAAUAGAAAGAAAUCAGAAGGCACACAUGAGGAUCACCCAUGUGAGUUCUUGAGAUUACAUGGU [Prohibition 42 - Jieux - Exclusion NG 1] (Eterna round: R96, puzzle: Exclusion NG 1)
- apparent KD of MS2 coat protein (input ligand: FMN 200 uM): 22.6 nM
- apparent KD of MS2 coat protein [4]: 11.3 nM
- apparent KD of MS2 coat protein (input ligand: none): 15.4 nM

Sequence: CUGACUCAAGGAUAUUGUACUGCUGACAUGAGGAUCACCCAUGUAUGUUAACUCGGCCGACGAGAAGGUGACAAAA [BotMod 7 - Jieux - Exclusion 5] (Eterna round: R97, puzzle: Exclusion 5)
- apparent KD of MS2 coat protein (input ligand: FMN 200 uM): 126 nM
- apparent KD of MS2 coat protein (input ligand: none): 111 nM

Sequence: AGUUGGCGAGGAUAUACAUGAGGAUCACCCAUGUGAGAGAUACUGGUGAGGUCGAUUAGUAGAAGGCGCUGACA [Mat X3R4 m15] (Eterna round: R97, puzzle: Exclusion 3)
- apparent KD of MS2 coat protein (input ligand: FMN 200 uM): 137 nM
- apparent KD of MS2 coat protein (input ligand: none): 654 nM

Sequence: ACAUGAGGAUCACCCAUGUGGGUUCUCCAGCAUAAUAAGAGGUAGGAUAUGCAGUCGCCGAAGGAGCAGAAGGACCGCGUUUAU [Eternabot solution 50] (Eterna round: R96, puzzle: Exclusion NG 3)
- apparent KD of MS2 coat protein (input ligand: FMN 200 uM): 67.1 nM
- apparent KD of MS2 coat protein [4]: 29.7 nM
- apparent KD of MS2 coat protein (input ligand: none): 43.5 nM

Sequence: AAAAGGUGAGGAUAUUCGGCGCCGGGAAGGUUGGUGCGGAUGAAGAAGGCACAUGAGGAUCACCCAUGUAAUAA [Excls4-I] (puzzle: Exclusion 4)
- apparent KD of MS2 coat protein [1]: 43.5 nM
